{
  "source": "the nanobody polyreactivity screen of Harvey et al. (2022)",
  "data": [
    {"assay": "yeast display, Sf9 membrane polyspecificity reagent, FACS + sequencing; frameworks hold sequencing errors", "outline": "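Sorting gates, low and high (top ~1%), were placed on anti-HA fluorescence to track expression and on streptavidin fluorescence to track reagent binding. A clone's polyreactivity label is taken from the gate it came out of. The reagent was 10% biotinylated, detergent-solubilized Sf9 membrane, applied for 1 hour at 4 °C to galactose-induced yeast display cells.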", "values": [
      {"sequence": "PVQLVESGGGLVQAGGSLRLSCAASGRTVGYAMGWYRQSPWKERELVARINRTTGSTYYADSVKGRFTISRDNAKNTVYLQMKRLKPEDTAVYYCNAKSYYYSRWSRYYCTGYYYWGQGTQVTVSS", "polyreactivity (PSR sort gate)": "high polyreactivity"},
      {"sequence": "PVQLVESGGGLVQAGGSLRLSCAASGSIFTAYDMGWYRQAPGKERELVAAINVSAGTTYYADSVKGRFTISRDNAKKTVYLQMISLIPEDTAVYYCAARDISLNAVGLPKEYNRDYWGQGTQVTVSS", "polyreactivity (PSR sort gate)": "low polyreactivity"},
      {"sequence": "PVQLVESGGGLVQAGGSLRLSCAASGSTFKRYAMGWYRQAPGKERELVAAISSGGTTYYADSVTGRFTISRDNAKNTVYLQMISLKPEDSAVYDCIARKYGWDQRILIYDYWGQGTQVTVSS", "polyreactivity (PSR sort gate)": "high polyreactivity"},
      {"sequence": "PVQLVESGGGLVQAGGSLRLSCAASGSTFLYSAMGWYRQAPGKERELVAGISAAGGSSYYADAVKGRFTISRDNAKNTVYIQMNSLKPEDTAVYYCNATRVVIRHSYDYWGQGTQVTVSS", "polyreactivity (PSR sort gate)": "high polyreactivity"},
      {"sequence": "PVQLVESGGGLVQAGGSLRLSCAASGSTIPSYAMGWYRQAPGKERELVASITYSDGTTRYADSVKGRFTISRDNAKNTVYLQMNSLKPEDTAVYYCNAVYYREGMDYWGQGTQVTVSS", "polyreactivity (PSR sort gate)": "low polyreactivity"},
      {"sequence": "PVQLVESGGGLVQAGGSLRLSCAASGTIFFSNAMGWYRQAPGKEREFVATITSSGVGTYYADSVKGRFTISRDNAKNTVYLQMNSLTPEDTAVYYCAADLTISYSQEYYYWGQGTQVTVSS", "polyreactivity (PSR sort gate)": "low polyreactivity"},
      {"sequence": "PVQLVESGGGLVQAGGSLSLICAASGRIFYMYAMRCYRPAPAKERELVAAITWSGGSTTYADSVKGRFTISRDNAKNTVYLQMNSLKPEDTSVYYCNAEGWIFPSFSPMDYWGQGTQVTVSS", "polyreactivity (PSR sort gate)": "low polyreactivity"},
      {"sequence": "PVQLVESGGGLVQAGGSLSLTCAASGIIFPVYAMGWYIQAPGKERELVAAITYSGDRTYYADSVKGRFTISRDNAKYTVYLQMNSLKPEDTAVDYFNARFGVWPYFYNEDDYLGQGTQVTVSS", "polyreactivity (PSR sort gate)": "low polyreactivity"},
      {"sequence": "PVQLVESGGGLVQAGVSLRLSGAASGFIFYYYAMGWYSQAPGKEREFVAAISQSVGSTYYADSVKGRFTISRDNANNTVYLQMNSLKPADTAVYYCNARGWIPARGWDDYYWGQGTQVTVSS", "polyreactivity (PSR sort gate)": "high polyreactivity"},
      {"sequence": "PVQLVETGGGLVQAGGSLRLSCAASGGIFTLYVLGWYRQPPGKERELVAAISRTGGSTYYADSVKARFTISRDNAKNTVYLQMNSLKPEDTAVYYCAADYRQPSAFYYWGQGTQVTVSS", "polyreactivity (PSR sort gate)": "high polyreactivity"},
      {"sequence": "PVQVVESGGVLVQAGGSRRLSCAAAGGNFYGNVMGWYRQAPGKERELVADITSVSSTYYADSVKGRFTISRDNAKNTVFLQMKRLKPEDTAVYYCAPEPDHVADSHSGYDYWGQGTQVTVSS", "polyreactivity (PSR sort gate)": "low polyreactivity"},
      {"sequence": "QAQLHESAGGLVQAGGCLRLSCAASGYFSKKWGMGWYRKAPGKERELVATIAKGASTYYADSMKGRFTISRDNAKYTMYRQMNSLKPEDTAVYYCGATQQDDQGLGYWGQDTQVTVSS", "polyreactivity (PSR sort gate)": "high polyreactivity"},
      {"sequence": "QAQLQEIGGSLVQAGGGLRLSCEASGYISVGSVMGWYRQAPSKERELVASIDQGANTNYADSVKGRFTISRDNEKNNVYLQMKSLKPEDTAVYYCATETTYILNDWGQGTQVTVSS", "polyreactivity (PSR sort gate)": "low polyreactivity"},
      {"sequence": "QAQLQESGGSLVQAGGGLRLSCAASGYISVGSVMGWYRQAPSKERELVASIDQGANTNYADSVKGRFTISRDNAKNNVYLQMNSLKPEDSAVYYCATETTYILNYWGQGTQVTVSS", "polyreactivity (PSR sort gate)": "low polyreactivity"},
      {"sequence": "QAQLQESGGSLVQAGGGMRLSCAASGYISVGSVMGWYRQAPSKERELVASIDQGANTNYADSVKGRFTISRDNAKNNVYLQMNSLKPEDTAVYYCATETTYILNYWGQGTQVTVSS", "polyreactivity (PSR sort gate)": "low polyreactivity"},
      {"sequence": "QAQLVESGGGLVQAGGRLRLICAASGSIFAGYAMGWSRQAPGKERELVATITSSSRTNYADSVKGRFSISRDNAKNNVYLQMNILKPEETAVSYCAARGRSVIDVYRMYYWGQGTKVTVSS", "polyreactivity (PSR sort gate)": "high polyreactivity"},
      {"sequence": "QAQLVESGGGLVQAGGSLRLSCAASGSTSLDNAMGWYRQAPGKERELVAAIRWRGSITFYADSVKGRFTISRDNAKNTVYLQMNSLKPEDTAVYYCAVTLRYTRSGAYDYWGQGTQVTVSS", "polyreactivity (PSR sort gate)": "low polyreactivity"}
    ]}
  ]
}
